According to article PMC8904598, “Structural snapshots of V/A-ATPase reveal the rotary catalytic mechanism of rotary ATPases” (Nature Communications, 2022):

System: T1, Nc1ncnc2c1ncn2[C@@H]1O[C@H](COP(=O)(O)OP(=O)(O)OP(=O)(O)O)[C@@H](O)[C@H]1O
T1 construct: holo V/A-ATPase (A3B3D1F1 + E2G2d1a1c12), C-terminal His3 tag on each c subunit, purified from T. thermophilus membranes, nucleotide removed by EDTA/phosphate dialysis, MSP1E3D1/DMPC nanodiscs; models cover V1EG; with V-type ATP synthase subunit D; V-type ATP synthase subunit F; V-type ATP synthase subunit E; V-type ATP synthase subunit G; V-type ATP synthase subunit C; V-type ATP synthase subunit I; V-type ATP synthase subunit K
Test: purified protein
Format: biochemical, Thermus thermophilus
Conditions: nanodisc enzyme, ATP-Mg, 50 mM Tris-HCl pH 8.0, 100 mM KCl, 25 °C, ATP-regenerating system, all rows carry A/S232A, A/T235S

Substance: Tth V/A-ATPase (A/S232A, T235S; TSSA mutant), nanodisc-incorporated, nucleotide-free (Thermus thermophilus HB8; Q56403:S232A/Q56403:T235S)
- Km: 394 µM
- kcat: 22 s⁻¹
